Laboratory results as given in patent US7910550B2, “Human kunitz-type inhibitor with enhanced antifibrinolytic activity” (STC.UNM, priority 2004, dated 2011).

Key:
[1] = tested on: human umbilical vein endothelial cells (HUVECs); assay: In vitro human endothelial cell angiogenesis assay (capillary tube formation on ECMATRIX); format: cell-based; details: for inhibition of angiogenesis (capillary-like tube formation): HUVECs on matrix
Text: The angiogenesis assay is commercially available from Chemicon International, Inc. (Temecula, Calif.), and involves growing human umbilical vein endothelial cells (HUVECs) on a proprietary matrix, followed by assessing angiogenesis on this matrix by counting new branch points in sprouting endothelial cells.
A semi-quantitative assay for in vitro angiogenesis was utilized. Human umbilical vein endothelial cells (HUVEC, Clonetics Corp., Walkersville, Md.) were maintained in 25 cm^2 flasks in EGM-2 media (Clonetics Corp.) supplemented with 2% fetal bovine serum, gentamicin, amphotericin-B, hEGF, hydrocortisone, VEGF, hFGF-B, R^3-IGF-1, ascorbic acid and heparin. For assay, a 48-well tissue culture plate was coated with 100 μl of ECMATRIX (Chemicon International, Inc., Temecula, Calif.) followed by incubation at 37° C. for one hour. Approximately 5×10^4 cells were then seeded onto the surface of the polymerized matrix. Varying concentrations of full-length human TFPI-2, diluted in EGM-2 media and filtered, were added to the wells and plate was placed in 37° C.-humidified CO2 incubator. Each treatment was performed in duplicate wells. Separately, VEGF was used as a positive control. The three-dimensional organization of cells was examined every hour under an inverted photomicroscope. The capillary tube branch point formation was counted in each well following eight hours of incubation. For each concentration, eight randomly chosen areas under 250× magnified field were observed. The results are expressed as number of branching points (mean±SEM) and the differences between each mean value was tested by one way analysis of variance (ANOVA). Statistically p-value <0.05 was accepted.
To examine the effect of full-length human TFPI-2 on morphogenesis (capillary-like tube formation) of endothelial cells, HUVECs were seeded on the matrigel and treated with full-length human TFPI-2 (0.2 μM-5 μM).

[2] = molecular target: factor VIIa-tissue factor complex (Homo sapiens, UniProt P08709); assay: Inhibition assay for factor VIIa-tissue factor amidolytic activity (S-2288); format: biochemical; design: purchased Novo Nordisk (Copenhagen, Denmark) for factor VIIa (provided as a gift); soluble tissue factor prepared in house by a published method (Petersen et al., 1996); details: relative to wild-type KD1
Experimental: Recombinant soluble human tissue factor (100 nM) and factor VIIa (50 nM) were incubated in a TBS-BSA buffer/5 mM CaCl2 for 15 minutes at 37° C. Following this incubation, aliquots (100 μl) were dispensed into a 96-well microtitration plate and treated with serial dilutions of inhibitors dissolved in TBS buffer. After 15 minutes of incubation, 30 μl of S-2288 (final concentration, 1 mM) was added to each well and the absorbance at 405 nm was determined as described earlier.
The apparent inhibition constant, Ki′ was determined using the non-linear regression data analysis program Ultrafitfv3.0 (Biosoft). Trypsin and plasmin inhibitory data were analyzed according to the following equation for a tight-binding inhibitor: vi=v0[√(Ki′+[I]0+[E]0)^2−4[I]0[E]0−(Ki′+[I]0−[E]0)]/2[E]0 where vi and v0 are the inhibited and uninhibited rates, respectively, and [I]0 and [E]0 are the total concentrations of inhibitor and enzyme, respectively. Factor VIIa-tissue factor inhibition data, where Ki>>[E]0, were analyzed according to the following equation: vi=v0/(1+[I]0/Ki′) Ki values were obtained by correcting for the effect of substrate according to Bieth et al. (Biochem. Med., 32:387-397, 1984), where Ki=Ki′/(1+[S]/Km) Results Molecular Modeling and Selection of Mutations

Chain of factor VIIa-tissue factor complex (P08709 213-466 limits assumed): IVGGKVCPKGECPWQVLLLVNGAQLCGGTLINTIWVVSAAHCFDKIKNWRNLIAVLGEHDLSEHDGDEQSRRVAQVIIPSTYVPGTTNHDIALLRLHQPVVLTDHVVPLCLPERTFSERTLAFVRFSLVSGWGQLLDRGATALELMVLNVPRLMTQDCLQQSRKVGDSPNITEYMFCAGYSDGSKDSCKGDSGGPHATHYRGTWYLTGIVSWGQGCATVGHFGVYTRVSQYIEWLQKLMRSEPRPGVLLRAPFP
Chain of factor VIIa-tissue factor complex (P08709 61-212 partner limits assumed): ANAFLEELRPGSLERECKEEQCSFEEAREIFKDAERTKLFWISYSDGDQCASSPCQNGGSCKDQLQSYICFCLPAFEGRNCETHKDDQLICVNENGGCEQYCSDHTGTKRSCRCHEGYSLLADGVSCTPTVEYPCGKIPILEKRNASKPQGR
Chain of factor VIIa-tissue factor complex (P13726 33-251 partner limits assumed): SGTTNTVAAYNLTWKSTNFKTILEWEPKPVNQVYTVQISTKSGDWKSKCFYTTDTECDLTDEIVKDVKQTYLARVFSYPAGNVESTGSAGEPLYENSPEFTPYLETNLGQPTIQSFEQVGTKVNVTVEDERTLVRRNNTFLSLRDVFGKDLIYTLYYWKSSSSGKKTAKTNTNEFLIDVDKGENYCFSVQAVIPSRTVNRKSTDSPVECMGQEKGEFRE

reduction in inhibitory activity towards factor VIIa / VIIa-TF [2]	Molecule	capillary-like tube formation ([1]; 5 μM, overnight incubation)	inhibition of angiogenesis (capillary-like tube formation) [1]	inhibition of angiogenesis (capillary-like tube formation) ([1]; listed as wild-type TFPI-2)
	TFPI-2: Human tissue factor pathway inhibitor-2, 213 amino acid polypeptide with three tandem Kunitz-type domains (SEQ ID NO:1) (protein, listed as Homo sapiens) DAAQEPTGNNAEICLLPLDYGPCRALLLRYYYDRYTQSCRQFLYGGCEGNANNFYTWEACDDACWRIEKVPKVCRLQVSVDDQCEGSTEKYFFNLSSMTCEKFFSGGCHRNRIENRFPDEATCMGFCAPKKIPSFCYSPKDEGLCSANVTRYYFNPRYRTCDAFTYTGCGGNDNNFVSREDCKRACAKALKKKKKMPKLRFASRIRKIRKKQF	no complete tube formation even after overnight incubation	significantly inhibited the capillary-like tube formation of HUVECs in a dose-dependent manner	inhibit angiogenesis
approximately five-fold	R24K KD1: KD1 with lysine in place of arginine at position 24 (SEQ ID NO:3) (protein, mutated active domain) DAAQEPTGNNAEICLLPLDYGPCKALLLRYYYDRYTQSCRQFLYGGCEGNANNFYTWEACDDACWRIEKVPKV			
